Data as given in patent US20180142226.
Residue numbers refer to the chain shown, from its start. Names may count otherwise.

T1: PFPQPQLPY peptide
T1 chain: PFPQPQLPY

T2: PFPQPQQPF peptide
T2 chain: PFPQPQQPF

B1: Kuma011-I463Q (protein)
chain: AAPTAYTPLDVAQAYQFPEGLDGQGQCIAIIELGGGYDEASLAQYFASLGVPAPQVVSVSVDGASNQPTGDPKGPDGEVELDIEVAGALAPGAKFAVYFAPDTTAGFLDAITTAIHDPTLKPSVVSISWSGPEDSWTSAAIAAMNRAFLDAAALGVTVLAAAGDSGSTGGEQDGLYHVHFPAASPYVLACGGTRLVASGGRIAQETVWNDGPDGGATGGGVSRIFPLPAWQEHANVPPSANPGASSGRGVPDLAGNADPATGYEVVIDGEATVQGGTSAVAPLFAALVARINQKLGKAVGYLNPTLYQLPADVFHDITEGNNDIANRAQIYQAGPGWDPCTGLGSPIGVRLLQALLPSASQPQ
B2: Kuma010/011 E221N (protein)
chain: B1 chain with E32N, Q274I
B3: Kuma011-N424K (protein)
chain: B1 chain with N235K, Q274I
B4: Kuma011-V268A (protein)
chain: B1 chain with V79A, Q274I
B5: Kuma011-K262E (protein)
chain: B1 chain with K73E, Q274I
B6: Kuma011-V268S (protein)
chain: B1 chain with V79S, Q274I
B7: Kuma011-L270T (protein)
chain: B1 chain with L81T, Q274I
B8: Kuma010/011 E221D (protein)
chain: B1 chain with E32D, Q274I
B9: Kuma010/011 E221Q (protein)
chain: B1 chain with E32Q, Q274I
B10: Kuma011-I463V (protein)
chain: B1 chain with Q274V
B11: Kuma011-V268T (protein)
chain: B1 chain with V79T, Q274I
B12: Kuma011-E269T (protein)
chain: B1 chain with E80T, Q274I
B13: Kuma011-I463R (protein)
chain: B1 chain with Q274R
B14: Kuma010/011 E221H (protein)
chain: B1 chain with E32H, Q274I
B15: Kuma011-E269L (protein)
chain: B1 chain with E80L, Q274I
B16: Kuma011-I463T (protein)
chain: B1 chain with Q274T
B17: Kuma011-L270A (protein)
chain: B1 chain with L81A, Q274I

Assays:
PFPQPQLPY peptide = target: T1, PFPQPQLPY peptide
PFPQPQQPF peptide = target: T2, PFPQPQQPF peptide

Row | Protein | % Improvement on PFPQPQLPY (SEQ ID NO: 67) (PFPQPQLPY peptide) [%] | % Improvement on PFPQPQQPF (SEQ ID NO: 68) (PFPQPQQPF peptide) [%]
1 | B1 | 129 | 69
2 | B2 | 105 | 
3 | B3 | 285 | 
4 | B4 | 107 | 89
5 | B5 | 109 | 110
6 | B6 | 104 | 83
7 | B7 | 307 | 29
8 | B8 | 105 | 
9 | B9 | 105 | 
10 | B10 | 256 | 141
11 | B11 | 127 | 105
12 | B12 | 263 | 191
13 | B13 | 29 | 110
14 | B14 | 105 | 
15 | B15 | 113 | 84
16 | B16 | 130 | 239
17 | B17 | 203 | 92
